According to PMC4145799:

What was measured:
[1] = target: inducible lysine decarboxylase LdcI (Escherichia coli) (UniProt P0A9H3); assay: cryo-EM structure; LdcI-LARA complex, 7.5 Å; 7.3 µM LdcI with 73 µM LARA (1:10), 15 min at room temperature, 50 mM Mes pH 6.5, 100 mM NaCl, 0.2 mM PLP, 1 mM DTT, 0.01% glutaraldehyde; D5 symmetry imposed
LdcI (Escherichia coli) = LdcI (Escherichia coli) (UniProt P0A9H3); settings: cited from earlier work
LdcI (Escherichia coli), sequence (P0A9H3 whole entry): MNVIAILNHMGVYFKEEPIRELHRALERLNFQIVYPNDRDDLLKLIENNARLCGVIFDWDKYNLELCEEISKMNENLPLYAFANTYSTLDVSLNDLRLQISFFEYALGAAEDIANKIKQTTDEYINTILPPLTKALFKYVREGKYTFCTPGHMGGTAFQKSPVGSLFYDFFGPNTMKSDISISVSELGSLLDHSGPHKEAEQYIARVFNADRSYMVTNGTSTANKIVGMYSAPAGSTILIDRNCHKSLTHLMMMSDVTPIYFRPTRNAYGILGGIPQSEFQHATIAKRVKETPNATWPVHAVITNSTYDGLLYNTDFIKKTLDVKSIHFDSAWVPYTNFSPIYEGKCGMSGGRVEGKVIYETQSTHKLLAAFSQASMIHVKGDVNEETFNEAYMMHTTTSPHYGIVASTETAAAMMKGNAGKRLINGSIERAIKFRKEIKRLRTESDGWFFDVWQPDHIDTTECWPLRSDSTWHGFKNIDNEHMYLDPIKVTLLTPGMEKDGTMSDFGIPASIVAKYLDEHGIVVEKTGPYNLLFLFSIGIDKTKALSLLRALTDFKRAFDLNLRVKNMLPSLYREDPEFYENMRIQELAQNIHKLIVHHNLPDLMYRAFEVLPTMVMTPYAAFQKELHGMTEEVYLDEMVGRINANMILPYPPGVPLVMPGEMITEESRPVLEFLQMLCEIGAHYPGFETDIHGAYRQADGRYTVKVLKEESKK

inducible lysine decarboxylase LdcI (Escherichia coli), sequence (P0A9H3 whole entry): as above
RavA, sequence (P31473 whole entry): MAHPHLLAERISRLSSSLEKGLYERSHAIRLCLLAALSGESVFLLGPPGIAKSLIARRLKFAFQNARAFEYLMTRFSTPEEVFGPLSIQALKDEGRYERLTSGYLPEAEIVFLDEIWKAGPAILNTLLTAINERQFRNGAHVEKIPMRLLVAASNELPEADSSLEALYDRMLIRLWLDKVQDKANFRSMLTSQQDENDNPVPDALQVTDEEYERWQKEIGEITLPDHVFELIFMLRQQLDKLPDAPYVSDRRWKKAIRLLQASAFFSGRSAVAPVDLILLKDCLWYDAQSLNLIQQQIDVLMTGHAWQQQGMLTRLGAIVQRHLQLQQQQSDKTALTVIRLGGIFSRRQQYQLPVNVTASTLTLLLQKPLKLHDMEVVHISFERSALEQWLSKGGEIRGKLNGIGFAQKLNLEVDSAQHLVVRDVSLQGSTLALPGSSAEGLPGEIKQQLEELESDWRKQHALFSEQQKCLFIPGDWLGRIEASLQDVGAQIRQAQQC

Row | Substance | stoichiometry N (LARA domain per LdcI protomer) [1] | Kd (LdcI (Escherichia coli))
1 | LARA domain of RavA (LdcI associating domain of RavA) (from UniProt P31473 1-498) (domain or fragment) | 1 | –
2 | RavA (from UniProt P31473) | – | 20 nM
